Residue numbers refer to the chain shown, from its start.
B1: GLS3000 S56G (antibody, name in Kabat numbering, V domains shown)
VH: QVQLVESGGGVVQPGRSLRLSCAASGFTFSNAWMHWVRQAPGKGLEWVAQIKAKSNNYATYYAESVKGRFTISRDDSKNSLYLQMNSLKTEDTAVYYCRYVHYGAYYGVDAWGQGTTVTVSS
VL: DIVMTQSPLSLPVTPGEPASISCRSSQSLVHSNRNTYLHWYQQKPGQAPRLLIYKVSNRFGGVPDRFSGSGSGTDFTLKISRVEAEDVGVYYCGQGTQVPYTFGQGTKLEIK
notes: one-arm IgG as m2
B2: GLS3000 T31E (antibody, name in Kabat numbering, V domains shown)
VH: B1 VH
VL: B1 VL with T36E, G61S
notes: one-arm IgG as m2
B3: GLS3000 V27cL (antibody, name in Kabat numbering, V domains shown)
VH: B1 VH
VL: B1 VL with V30L, G61S
notes: one-arm IgG as m2
B4: GLS3000 V94A (antibody, name in Kabat numbering, V domains shown)
VH: B1 VH
VL: B1 VL with G61S, V99A
notes: one-arm IgG as m2
B5: GLS3000 S56N (antibody, name in Kabat numbering, V domains shown)
VH: B1 VH
VL: B1 VL with G61N
notes: one-arm IgG as m2
B6: GLS3000 S56W (antibody, name in Kabat numbering, V domains shown)
VH: B1 VH
VL: B1 VL with G61W
notes: one-arm IgG as m2
B7: GLS3000 T92D (antibody, name in Kabat numbering, V domains shown)
VH: B1 VH
VL: B1 VL with G61S, T97D
notes: one-arm IgG as m2
B8: GLS3000 V94D (antibody, name in Kabat numbering, V domains shown)
VH: B1 VH
VL: B1 VL with G61S, V99D
notes: one-arm IgG as m2
B9: GLS3000 T92I (antibody, name in Kabat numbering, V domains shown)
VH: B1 VH
VL: B1 VL with G61S, T97I
notes: one-arm IgG as m2
B10: GLS3000 T92S (antibody, name in Kabat numbering, V domains shown)
VH: B1 VH
VL: B1 VL with G61S, T97S
notes: one-arm IgG as m2
B11: GLS3000 S56M (antibody, name in Kabat numbering, V domains shown)
VH: B1 VH
VL: B1 VL with G61M
notes: one-arm IgG as m2
B12: GLS3000 V51E (antibody, name in Kabat numbering, V domains shown)
VH: B1 VH
VL: B1 VL with V56E, G61S
notes: one-arm IgG as m2
B13: GLS3000 S56K (antibody, name in Kabat numbering, V domains shown)
VH: B1 VH
VL: B1 VL with G61K
notes: one-arm IgG as m2
B14: GLS3000 S56V (antibody, name in Kabat numbering, V domains shown)
VH: B1 VH
VL: B1 VL with G61V
notes: one-arm IgG as m2
B15: GLS3000 T31N (antibody, name in Kabat numbering, V domains shown)
VH: B1 VH
VL: B1 VL with T36N, G61S
notes: one-arm IgG as m2
B16: GLS3000 T92Y (antibody, name in Kabat numbering, V domains shown)
VH: B1 VH
VL: B1 VL with G61S, T97Y
notes: one-arm IgG as m2
B17: GLS3000 V27cS (antibody, name in Kabat numbering, V domains shown)
VH: B1 VH
VL: B1 VL with V30S, G61S
notes: one-arm IgG as m2
B18: GLS3000 V27cP (antibody, name in Kabat numbering, V domains shown)
VH: B1 VH
VL: B1 VL with V30P, G61S
notes: one-arm IgG as m2
B19: GLS3000 S56T (antibody, name in Kabat numbering, V domains shown)
VH: B1 VH
VL: B1 VL with G61T
notes: one-arm IgG as m2
B20: GLS3000 T97P (antibody, name in Kabat numbering, V domains shown)
VH: B1 VH
VL: B1 VL with G61S, T102P
notes: one-arm IgG as m2
B21: GLS3000 V94F (antibody, name in Kabat numbering, V domains shown)
VH: B1 VH
VL: B1 VL with G61S, V99F
notes: one-arm IgG as m2
B22: GLS3000 V51I (antibody, name in Kabat numbering, V domains shown)
VH: B1 VH
VL: B1 VL with V56I, G61S
notes: one-arm IgG as m2
B23: GLS3000 T31D (antibody, name in Kabat numbering, V domains shown)
VH: B1 VH
VL: B1 VL with T36D, G61S
notes: one-arm IgG as m2
B24: GLS3000 S56I (antibody, name in Kabat numbering, V domains shown)
VH: B1 VH
VL: B1 VL with G61I
notes: one-arm IgG as m2
B25: GLS3000 T31P (antibody, name in Kabat numbering, V domains shown)
VH: B1 VH
VL: B1 VL with T36P, G61S
notes: one-arm IgG as m2
B26: GLS3000 V27cI (antibody, name in Kabat numbering, V domains shown)
VH: B1 VH
VL: B1 VL with V30I, G61S
notes: one-arm IgG as m2
B27: GLS3000 S56L (antibody, name in Kabat numbering, V domains shown)
VH: B1 VH
VL: B1 VL with G61L
notes: one-arm IgG as m2
B28: GLS3000 T92L (antibody, name in Kabat numbering, V domains shown)
VH: B1 VH
VL: B1 VL with G61S, T97L
notes: one-arm IgG as m2
B29: GLS3000 S56Y (antibody, name in Kabat numbering, V domains shown)
VH: B1 VH
VL: B1 VL with G61Y
notes: one-arm IgG as m2
B30: GLS3000 V94G (antibody, name in Kabat numbering, V domains shown)
VH: B1 VH
VL: B1 VL with G61S, V99G
notes: one-arm IgG as m2
B31: GLS3000 T92E (antibody, name in Kabat numbering, V domains shown)
VH: B1 VH
VL: B1 VL with G61S, T97E
notes: one-arm IgG as m2
B32: GLS3000 T31I (antibody, name in Kabat numbering, V domains shown)
VH: B1 VH
VL: B1 VL with T36I, G61S
notes: one-arm IgG as m2
B33: GLS3000 S56Q (antibody, name in Kabat numbering, V domains shown)
VH: B1 VH
VL: B1 VL with G61Q
notes: one-arm IgG as m2
B34: GLS3000 S56R (antibody, name in Kabat numbering, V domains shown)
VH: B1 VH
VL: B1 VL with G61R
notes: one-arm IgG as m2
B35: GLS3000 V51P (antibody, name in Kabat numbering, V domains shown)
VH: B1 VH
VL: B1 VL with V56P, G61S
notes: one-arm IgG as m2
B36: GLS3000 V27cD (antibody, name in Kabat numbering, V domains shown)
VH: B1 VH
VL: B1 VL with V30D, G61S
notes: one-arm IgG as m2
B37: GLS3000 T31K (antibody, name in Kabat numbering, V domains shown)
VH: B1 VH
VL: B1 VL with T36K, G61S
notes: one-arm IgG as m2
B38: GLS3000 S56H (antibody, name in Kabat numbering, V domains shown)
VH: B1 VH
VL: B1 VL with G61H
notes: one-arm IgG as m2
B39: GLS3000 V27cE (antibody, name in Kabat numbering, V domains shown)
VH: B1 VH
VL: B1 VL with V30E, G61S
notes: one-arm IgG as m2
B40: GLS3000 V27cY (antibody, name in Kabat numbering, V domains shown)
VH: B1 VH
VL: B1 VL with V30Y, G61S
notes: one-arm IgG as m2
B41: GLS3000 V51D (antibody, name in Kabat numbering, V domains shown)
VH: B1 VH
VL: B1 VL with V56D, G61S
notes: one-arm IgG as m2
B42: GLS3000 V51G (antibody, name in Kabat numbering, V domains shown)
VH: B1 VH
VL: B1 VL with V56G, G61S
notes: one-arm IgG as m2
B43: GLS3000 T92P (antibody, name in Kabat numbering, V domains shown)
VH: B1 VH
VL: B1 VL with G61S, T97P
notes: one-arm IgG as m2
B44: GLS3000 S56P (antibody, name in Kabat numbering, V domains shown)
VH: B1 VH
VL: B1 VL with G61P
notes: one-arm IgG as m2
B45: GLS3000 T92A (antibody, name in Kabat numbering, V domains shown)
VH: B1 VH
VL: B1 VL with G61S, T97A
notes: one-arm IgG as m2
B46: GLS3000 V94E (antibody, name in Kabat numbering, V domains shown)
VH: B1 VH
VL: B1 VL with G61S, V99E
notes: one-arm IgG as m2

Molecular target: T1, CD3 epsilon homodimer protein (UniProt P07766 23-126)
T1 construct: also called CD3 (CD3 epsilon)
T1 sequence (P07766 23-126): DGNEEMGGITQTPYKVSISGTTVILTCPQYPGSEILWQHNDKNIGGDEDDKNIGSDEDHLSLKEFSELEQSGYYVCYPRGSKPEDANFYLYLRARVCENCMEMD
Test: SPR Biacore T200, CD3e homodimer on chip, vs unaltered GLS3000 antibody

Row | Binder | ratio of amounts bound (Z=Y/X)
1 | B1 | 0.92
2 | B2 | 0.49
3 | B3 | 0.84
4 | B4 | 1.05
5 | B5 | 0.92
6 | B6 | 1.38
7 | B7 | 0.18
8 | B8 | 0.89
9 | B9 | 0.34
10 | B10 | 0.96
11 | B11 | 1.05
12 | B12 | 0.64
13 | B13 | 1.46
14 | B14 | 0.95
15 | B15 | 0.32
16 | B16 | 0.33
17 | B17 | 0.51
18 | B18 | 0.3
19 | B19 | 0.97
20 | B20 | 0.31
21 | B21 | 0.71
22 | B22 | 0.81
23 | B23 | 0.23

Row | Binder | ratio of amounts bound (Z=Y/X)
24 | B24 | 0.99
25 | B25 | 0.31
26 | B26 | 0.96
27 | B27 | 1.02
28 | B28 | 0.42
29 | B29 | 1.46
30 | B30 | 0.48
31 | B31 | 0.17
32 | B32 | 0.97
33 | B33 | 1.04
34 | B34 | 1.36
35 | B35 | 0.32
36 | B36 | 0.32
37 | B37 | 1.04
38 | B38 | 1.05
39 | B39 | 0.61
40 | B40 | 0.77
41 | B41 | 0.33
42 | B42 | 0.84
43 | B43 | 0.26
44 | B44 | 0.95
45 | B45 | 0.63
46 | B46 | 0.5

From patent publication US20210388087A1 (Chugai, published 2021)
